According to US20170044259A1 (CYTOMX THERAPEUTICS, published 2017):

Legend:
[1] = target: T1, human PD-1-Fc (R and D systems, Minneapolis, Minn.) (human, UniProt Q15116 25-167); experiment: plate ELISA on human PD-1-Fc
T1 construct: bought; also called hPD-1-Fc; hPD-1; not shown: Fc part of the bought fusion

[2] = target: T1, human PD-1-Fc (R and D systems, …); experiment: plate ELISA on human PD-1-Fc; apparent KD
[3] = target: T1, human PD-1-Fc (R and D systems, …); experiment: plate ELISA on human PD-1-Fc; reference A1.5
[4] = target: T1, human PD-1-Fc (R and D systems, …); experiment: plate ELISA on human PD-1-Fc; reference A1.5; remark: listed apart in the source

T1 sequence (Q15116 25-167 limits assumed): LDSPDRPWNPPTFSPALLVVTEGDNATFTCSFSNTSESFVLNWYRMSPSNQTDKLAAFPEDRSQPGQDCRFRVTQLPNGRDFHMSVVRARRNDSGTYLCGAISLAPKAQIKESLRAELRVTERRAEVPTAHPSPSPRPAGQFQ

B1: A1.0 (antibody, human IgG4 S228P, kappa, V domains shown)
VH: EVQLVESGGGLVQPGGSLRLSCAASGFTFSGYAMSWVRQAPGKGLEWVAYISNSGGNAHYADSVKGRFTISRDNSKNTLYLQMNSLRAEDTAVYYCTREDYGTSPFVYWGQGTLVTVSS
VL: DIQLTQSPSSLSASVGDRVTITCRASESVDNYGISFMNWFQQKPGKAPKLLIYAASNQGSGVPSRFSGSGSGTDFTLTISSMQPEDFATYYCQQSKDVPWTFGQGTKLEIKR
notes: humanized, full length hIgG4/hKappa
binding result [1]: binds

B2: A1.2 (antibody, human IgG4 S228P, kappa, V domains shown)
VH: EVQLVESGGGLVQPGGSLRLSCAASGFTFSGYAMSWVRQAPGKGLEWVAYISNSGGNAHYADSVKGRFTISRDNSKNTLYLQMNSLRAEDTAVYYCTREDYGTSPFVYWGQGTLVTVSS
VL: DIQLTQSPSSLSASVGDRVTITCRASESVDQYGISFMNWFQQKPGKAPKLLIYAASNQGSGVPSRFSGSGSGTDFTLTISSMQPEDFATYYCQQSKDVPWTFGQGTKLEIKR
notes: as for B1
binding result [1]: binds

B3: A1.4 (antibody, human IgG4 S228P, kappa)
heavy: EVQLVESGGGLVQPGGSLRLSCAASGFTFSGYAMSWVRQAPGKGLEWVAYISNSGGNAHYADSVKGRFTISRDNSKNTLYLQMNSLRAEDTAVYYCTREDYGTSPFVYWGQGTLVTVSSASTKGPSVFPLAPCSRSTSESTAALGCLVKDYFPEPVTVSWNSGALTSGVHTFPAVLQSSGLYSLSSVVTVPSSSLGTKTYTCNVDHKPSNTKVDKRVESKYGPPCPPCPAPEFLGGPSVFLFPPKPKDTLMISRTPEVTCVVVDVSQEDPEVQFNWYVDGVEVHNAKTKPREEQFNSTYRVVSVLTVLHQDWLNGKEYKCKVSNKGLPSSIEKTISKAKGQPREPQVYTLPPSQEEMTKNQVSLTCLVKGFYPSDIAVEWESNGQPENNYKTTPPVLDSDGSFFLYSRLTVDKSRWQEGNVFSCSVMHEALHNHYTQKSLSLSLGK
light: DIQLTQSPSSLSASVGDRVTITCRASESVDSYGISFMNWFQQKPGKAPKLLIYAASNQGSGVPSRFSGSGSGTDFTLTISSMQPEDFATYYCQQSKDVPWTFGQGTKLEIKRTVAAPSVFIFPPSDEQLKSGTASVVCLLNNFYPREAKVQWKVDNALQSGNSQESVTEQDSKDSTYSLSSTLTLSKADYEKHKVYACEVTHQGLSSPVTKSFNRGEC
notes: humanized, full length hIgG4/hKappa; also called anti-PD-1 A1.4; DyLight-650 A1.4
binding result [1]: binds

B4: A1.6 (antibody, human IgG4 S228P, kappa, V domains shown)
VH: EVQLVESGGGLVQPGGSLRLSCAASGFTFSGYAMSWVRQAPGKGLEWVAYISNSGGNAHYADSVKGRFTISRDNSKNTLYLQMNSLRAEDTAVYYCTREDYGTSPFVYWGQGTLVTVSS
VL: DIQLTQSPSSLSASVGDRVTITCRASESVDNYGISFMNWFQQKPGKAPKLLIYAASDQGSGVPSRFSGSGSGTDFTLTISSMQPEDFATYYCQQSKDVPWTFGQGTKLEIKR
notes: as for B1
binding result [1]: binds

B5: PD-1 1.5 PD009 2001 (antibody, human IgG4 S228P, kappa)
heavy: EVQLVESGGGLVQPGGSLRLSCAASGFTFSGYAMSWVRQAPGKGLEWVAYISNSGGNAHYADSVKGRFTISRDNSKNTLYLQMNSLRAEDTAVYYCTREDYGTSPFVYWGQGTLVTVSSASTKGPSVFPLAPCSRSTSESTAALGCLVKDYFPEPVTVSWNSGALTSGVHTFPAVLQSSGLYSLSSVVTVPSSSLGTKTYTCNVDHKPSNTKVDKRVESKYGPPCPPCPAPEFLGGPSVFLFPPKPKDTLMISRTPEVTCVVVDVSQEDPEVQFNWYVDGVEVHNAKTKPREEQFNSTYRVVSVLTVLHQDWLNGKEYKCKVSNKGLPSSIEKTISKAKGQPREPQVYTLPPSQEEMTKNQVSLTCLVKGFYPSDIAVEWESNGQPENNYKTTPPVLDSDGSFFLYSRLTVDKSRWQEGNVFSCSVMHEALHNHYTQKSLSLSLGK
light: QGQSGQGAPRTCYTYQCSSFYTGGGSSGGSISSGLLSGRSDNHGGGSDIQLTQSPSSLSASVGDRVTITCRASESVDAYGISFMNWFQQKPGKAPKLLIYAASNQGSGVPSRFSGSGSGTDFTLTISSMQPEDFATYYCQQSKDVPWTFGQGTKLEIKRTVAAPSVFIFPPSDEQLKSGTASVVCLLNNFYPREAKVQWKVDNALQSGNSQESVTEQDSKDSTYSLSSTLTLSKADYEKHKVYACEVTHQGLSSPVTKSFNRGEC
Kd [2]: 10 nM
ME (masking efficiency, Kd of the activatable antibody divided by Kd of the parental antibody) [3]: 2
Masking Efficiency [4]: 6

B6: PD-1 1.5 PD012 2001 (antibody, human IgG4 S228P, kappa)
heavy: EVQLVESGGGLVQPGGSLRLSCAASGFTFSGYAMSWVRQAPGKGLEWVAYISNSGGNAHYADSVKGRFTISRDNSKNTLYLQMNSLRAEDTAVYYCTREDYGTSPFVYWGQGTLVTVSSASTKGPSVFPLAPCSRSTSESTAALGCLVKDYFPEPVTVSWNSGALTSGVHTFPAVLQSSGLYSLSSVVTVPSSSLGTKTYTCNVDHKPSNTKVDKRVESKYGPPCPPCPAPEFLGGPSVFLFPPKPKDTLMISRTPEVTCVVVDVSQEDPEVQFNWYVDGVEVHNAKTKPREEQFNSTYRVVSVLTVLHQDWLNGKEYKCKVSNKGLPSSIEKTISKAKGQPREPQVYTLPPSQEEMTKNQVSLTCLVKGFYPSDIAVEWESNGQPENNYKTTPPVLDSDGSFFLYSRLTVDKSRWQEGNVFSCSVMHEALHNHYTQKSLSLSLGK
light: QGQSGQGNWLDCQFYSECSVYGGGGSSGGSISSGLLSGRSDNHGGGSDIQLTQSPSSLSASVGDRVTITCRASESVDAYGISFMNWFQQKPGKAPKLLIYAASNQGSGVPSRFSGSGSGTDFTLTISSMQPEDFATYYCQQSKDVPWTFGQGTKLEIKRTVAAPSVFIFPPSDEQLKSGTASVVCLLNNFYPREAKVQWKVDNALQSGNSQESVTEQDSKDSTYSLSSTLTLSKADYEKHKVYACEVTHQGLSSPVTKSFNRGEC
notes: also called PD-12
Kd [2]: 25 nM
ME (masking efficiency, Kd of the activatable antibody divided by Kd of the parental antibody) [3]: 10
Masking Efficiency [4]: 14

B7: PD-1 1.5 PD019 2001 (antibody, human IgG4 S228P, kappa)
heavy: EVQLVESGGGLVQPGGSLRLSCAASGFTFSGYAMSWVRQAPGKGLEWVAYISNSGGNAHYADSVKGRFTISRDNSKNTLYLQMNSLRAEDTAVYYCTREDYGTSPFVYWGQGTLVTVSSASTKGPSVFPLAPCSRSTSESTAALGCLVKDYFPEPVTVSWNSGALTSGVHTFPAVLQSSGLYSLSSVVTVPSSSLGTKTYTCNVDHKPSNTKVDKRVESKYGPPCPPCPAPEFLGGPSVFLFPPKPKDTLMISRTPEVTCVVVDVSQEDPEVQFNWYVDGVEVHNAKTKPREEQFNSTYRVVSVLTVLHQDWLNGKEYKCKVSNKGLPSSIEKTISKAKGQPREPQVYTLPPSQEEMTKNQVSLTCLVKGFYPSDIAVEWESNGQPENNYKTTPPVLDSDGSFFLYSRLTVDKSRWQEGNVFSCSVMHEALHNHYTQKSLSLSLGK
light: QGQSGQGPCDQNPYFYPYVCHAGGGSSGGSISSGLLSGRSDNHGGGSDIQLTQSPSSLSASVGDRVTITCRASESVDAYGISFMNWFQQKPGKAPKLLIYAASNQGSGVPSRFSGSGSGTDFTLTISSMQPEDFATYYCQQSKDVPWTFGQGTKLEIKRTVAAPSVFIFPPSDEQLKSGTASVVCLLNNFYPREAKVQWKVDNALQSGNSQESVTEQDSKDSTYSLSSTLTLSKADYEKHKVYACEVTHQGLSSPVTKSFNRGEC
notes: also called PD-19
Kd [2]: 93 nM
ME (masking efficiency, Kd of the activatable antibody divided by Kd of the parental antibody) [3]: 30
Masking Efficiency [4]: 52
